Test results as given in PMC3163394 (Cell, 2011).

Biological target: the molecule itself
Assay: crystal structure

B1: Shb17 (H13A), catalytically inactive mutant of sedoheptulose-1,7-bisphosphatase (enzyme, S. cerevisiae)
chain: MPSLTPRCIIVRAGQTEWSKSGQYTGLTDLPLTPYGEGQMLRTGESVFRNNQFLNPDNITYIFTSPRLRARQTVDLVLKPLSDEQRAKIRVVVDDDLREWEYGDYEGMLTREIIELRKSRGLDKERPWNIWRDGCENGETTQQIGLRLSRAIARIQNLHRKHQSEGRASDIMVFAHGHALRYFAAIWFGLGVQKKCETIEEIQNVKSYDDDTVPYVKLESYRHLVDNPCFLLDAGGIGVLSYAHHNIDEPALELAGPFVSPPEEESQHGDV
  stoichiometry N: 2
